Patent US20250277026A1 (NOVAROCK BIOTHERAPEUTICS, published 2025)
Residue numbers refer to the chain shown, from its start. Names and notes keep the numbering of the source.

How the values were obtained:
human Claudin-3 [1] = target: T1, human Claudin-3 (human, UniProt O15551 1-220); test: FACS, Claudin-3-CHO-K1 cells, serial dilution, MFI
T1 construct: On transfected CHO-K1 cells, or endogenous on MCF7 cells; also called CLDN3
T1 sequence: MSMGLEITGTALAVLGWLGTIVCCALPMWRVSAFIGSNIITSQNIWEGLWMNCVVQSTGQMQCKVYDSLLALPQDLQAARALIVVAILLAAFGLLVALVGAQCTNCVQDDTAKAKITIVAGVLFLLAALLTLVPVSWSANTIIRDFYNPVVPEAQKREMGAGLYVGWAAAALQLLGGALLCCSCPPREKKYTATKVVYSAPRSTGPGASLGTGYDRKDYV
Protocol: (§1) Briefly, Claudin-6-CHO-K1 cells verse parental CHO-K1 cells were incubated with anti-CLDN6 antibodies for 2 hours at 4° C. Cells were fixed with 2% PFA (Alfa Aesar, cat #: J61899) for 15 minutes at 4° C. and then washed. […] Flow cytometric analyses were performed on a flow cytometry instrument (Intellicyte, IQue plus, Sartorius).

human Claudin-6 [2] = target: T2, human Claudin-6 (human, UniProt P56747 1-220); test: FACS dose response, NEC8 cells (endogenous CLDN6)
T2 construct: also called CLDN6
T2 sequence: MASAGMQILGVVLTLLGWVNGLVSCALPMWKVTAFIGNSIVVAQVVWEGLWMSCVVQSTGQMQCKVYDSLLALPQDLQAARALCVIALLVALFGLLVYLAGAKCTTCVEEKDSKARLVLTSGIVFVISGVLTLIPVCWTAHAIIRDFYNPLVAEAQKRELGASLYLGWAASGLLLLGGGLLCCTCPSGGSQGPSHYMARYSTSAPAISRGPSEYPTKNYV
Protocol: (§2) Cells were fixed with 2% PFA (Alfa Aesar, catalog number: J61899) for 15 minutes at 4° C. and then washed. […] Flow cytometric analyses were performed on a flow cytometry instrument (Intellicyte, IQue plus, Sartorius).
(§3) The anti-CLDN6 antibodies were also evaluated for their binding affinity to Claudin-6 overexpressing cell lines by FACS.

human Claudin-6 [3] = target: T2, human Claudin-6; test: cell-based or functional assay
human Claudin-6 [4] = target: T2, human Claudin-6; test: FACS, NEC8 cells (endogenous CLDN6)
Protocol: as §2

human Claudin-6 [5] = target: T2, human Claudin-6; test: FACS, Claudin-6-HEK293 cells, 5 µg/ml
human Claudin-6 [6] = target: T2, human Claudin-6; test: FACS dose response, Claudin-6-CHO-K1 cells
Protocol: as §3

human Claudin-6 [7] = target: T2, human Claudin-6; test: FACS dose response, Claudin-6-HEK293 cells
Protocol: as §3

human Claudin-6 [8] = target: T2, human Claudin-6; test: cell-based or functional assay; remark: listed apart in the source
human Claudin-6 [9] = target: T2, human Claudin-6; test: FACS dose response, Claudin-6-CHO cells
Protocol: as §1

human Claudin-6 [10] = target: T2, human Claudin-6; test: FACS, Claudin-6-CHO-K1 cells, 5 µg/ml
Protocol: as §1

human Claudin-6 [11] = target: T2, human Claudin-6; test: cell-based or functional assay; remark: listed apart in the source
human Claudin-6 [12] = target: T2, human Claudin-6; test: FACS dose response, Claudin-6-HEK293 cells; remark: listed apart in the source
human Claudin-4 [13] = target: T3, human Claudin-4 (human, UniProt O14493 1-209); test: FACS on MCF7 cells, which endogenously express Claudin-3 and Claudin-4; MFI relative to the isotype control
T3 construct: On transfected CHO-K1 cells, or endogenous on MCF7 cells; also called CLDN4
T3 sequence: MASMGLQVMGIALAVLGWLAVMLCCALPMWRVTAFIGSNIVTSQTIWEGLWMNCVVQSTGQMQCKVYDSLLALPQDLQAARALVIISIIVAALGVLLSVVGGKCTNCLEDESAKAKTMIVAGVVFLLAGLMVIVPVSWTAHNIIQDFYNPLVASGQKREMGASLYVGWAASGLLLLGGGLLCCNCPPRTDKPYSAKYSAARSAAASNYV

human Claudin-3 [14] = target: T1, human Claudin-3; test: as above
human Claudin-9 [15] = target: T4, human Claudin-9 (human, UniProt O95484 1-217); test: FACS dose response, Claudin-9-HEK293 cells
T4 construct: On transfected HEK293 cells; also called CLDN9
T4 sequence: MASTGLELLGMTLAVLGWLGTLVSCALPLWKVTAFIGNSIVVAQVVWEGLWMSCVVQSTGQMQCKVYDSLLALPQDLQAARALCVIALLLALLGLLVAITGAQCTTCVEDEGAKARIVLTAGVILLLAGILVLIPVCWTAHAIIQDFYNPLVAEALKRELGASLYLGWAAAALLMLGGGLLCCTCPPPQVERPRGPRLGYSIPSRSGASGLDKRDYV
Protocol: (§4) The binding specificity of the disclosed anti-Claudin-6 antibodies were further assessed for binding to Claudin-9 by FACS. Briefly, Claudin-9-HEK293 cells (GenScript, Item #U3288DL180_4) were incubated with recombinant Claudin-6 antibodies for 2 hours at 4° C. Cells were fixed with 2% PFA (Alfa Aesar, cat #: J61899) for 15 minutes at 4° C. and then washed. […] Flow cytometric analyses were performed on a flow cytometry instrument (Intellicyte, IQue plus, Sartorius).

human Claudin-3 [16] = target: T1, human Claudin-3; test: FACS on Claudin-3-CHO-K1 cells, MFI relative to the isotype control
Protocol: as §1

human Claudin-6 [17] = target: T2, human Claudin-6; test: FACS, OV90 cells (endogenous CLDN6)
Protocol: as §2

human Claudin-9 [18] = target: T4, human Claudin-9; test: FACS, Claudin-9-HEK293 cells, 5 µg/ml
Protocol: as §4

human Claudin-4 [19] = target: T3, human Claudin-4; test: FACS on Claudin-4-CHO-K1 cells, MFI
Protocol: as §1

human Claudin-4 [20] = target: T3, human Claudin-4; test: FACS on Claudin-4-CHO-K1 cells, MFI relative to the isotype control
Protocol: as §1

human Claudin-6 [21] = target: T2, human Claudin-6; test: FACS, NEC8 cells (endogenous CLDN6); remark: listed apart in the source
Protocol: as §2

human Claudin-3 [22] = target: T1, human Claudin-3; test: FACS on MCF7 cells, which endogenously express Claudin-3 and Claudin-4, MFI
human Claudin-6 [23] = target: T2, human Claudin-6; test: cell-based or functional assay; remark: listed apart in the source
human Claudin-3 [24] = target: T1, human Claudin-3; test: FACS, Claudin-3-CHO-K1 cells, serial dilution, MFI; remark: listed apart in the source
Protocol: as §1

human Claudin-4 [25] = target: T3, human Claudin-4; test: FACS, Claudin-4-CHO-K1 cells, serial dilution, MFI
Protocol: as §1

human Claudin-3 [26] = target: T1, human Claudin-3; test: FACS, Claudin-3-CHO-K1 cells, serial dilution, MFI; remark: listed apart in the source
Protocol: as §1

human Claudin-4 [27] = target: T3, human Claudin-4; test: FACS, Claudin-4-CHO-K1 cells, serial dilution, MFI; remark: listed apart in the source
Protocol: as §1

human Claudin-6 [28] = target: T2, human Claudin-6; test: FACS dose response, Claudin-6-HEK293 cells; remark: listed apart in the source
human Claudin-6 [29] = target: T2, human Claudin-6; test: FACS dose response, NEC8 cells (endogenous CLDN6); remark: listed apart in the source

B1: NR.N6.Ab3 (antibody, V domains shown)
VH: QVQLVESGGGVVQPGRSLRLSCAASGFTFSGYGMHWVRQAPGKGLEWVAAIWYDGSNKYYADSVKGRFTISSDNSKNTLYLQMKSLRAEDTAVYYCAREWYSSGWSMYDVFDIWGQGTMVTVSS
VL: QTVVTQEPSFSVSPGGTVTLTCGLSSGSVSTSYYPSWYQQTPGQAPRTLIYSTNTRSSGVPDRFSGSILGNKAALTITGAQADDESDYYCVLYMGSGIWVFGGGTKLTVL
binding result (human Claudin-3 [1]): no binding (tested: log 1.5 (about 33 nM))
EC50 (human Claudin-6 [2]): 3.27 nM
endocytosis killing (anti-hFc Fab-MMAF, CellTiter-Glo, 72 h) on NEC8 cells, EC50 (human Claudin-6 [3]): 0.51 nM
fold MFI over isotype control (human Claudin-6 [4]): 20 fold
fold MFI over isotype control (human Claudin-6 [5]): 31 fold
EC50 (human Claudin-6 [6]): 4.69 nM
EC50 (human Claudin-6 [7]): 5.17 nM
ADCC reporter assay on NEC8 cells, EC50 (human Claudin-6 [8]): 6.43 nM

B2: NR.N6.Ab2 (antibody, V domains shown)
VH: QVQLVESGGGVVQPGRSLRLSCTASGFTFSHYGMHWVRQAPGKGLEWVSFLWFDGSKDNYADSVKGRFTISRDNSKNMLYLRMDSLRAEDTAVYYCARNGGLTIFDYWGQGTLVTVSS
VL: AIQLTQSPSSLSASVGDRVTITCRASQGINSWLAWYQQKPEKAPKSLIYAASSLQSGVPSRFSGSGSGTDFTLTISSLQPEDFATYYCQQYNFYPYTFGQGTKLEII
notes: hybridoma-purified antibody in the Claudin-3-CHO-K1, Claudin-4-CHO-K1 and MCF7 assays
EC50 (human Claudin-6 [9]): 6.88 nM
fold MFI over isotype control (human Claudin-6 [10]): 24 fold
endocytosis-mediated cytotoxicity on OV90 cells, EC50 (human Claudin-6 [11]): 2.32 nM
EC50 (human Claudin-6 [12]): 1 nM
fold MFI over isotype control (human Claudin-4 [13]): 1.1 x
fold MFI over isotype control (human Claudin-3 [14]): 1.1 x
EC50 (human Claudin-9 [15]): 1.49 nM
fold MFI over isotype control (human Claudin-3 [16]): 0.8 x
fold MFI over isotype control (human Claudin-6 [17]): 17 fold
fold MFI over isotype control (human Claudin-9 [18]): 53 fold
binding result (human Claudin-4 [19]): no binding
fold MFI over isotype control (human Claudin-4 [20]): 0.9 x
fold MFI over isotype control (human Claudin-6 [21]): 25 fold
binding result (human Claudin-3 [22]): no binding
endocytosis-mediated cytotoxicity (anti-hFc Fab-MMAF, CellTiter-Glo) on NEC8 cells, EC50 mean (St. Dev. 0.07) (human Claudin-6 [23]): 0.1 nM

B3: NR.N6.Ab4 (antibody, V domains shown)
VH: QVQLVESGGGVVQPGRSLRLSCAASGFIFSSYGMHWVRQAPGKGLEWVAVIWYDGSNKFYADSVKGRFTISRDNSRKTLYLQMNSLRAEDTAVYYCARDGRYFDWGGSYYYYYGMDVWGQGTTVTVSS
VL: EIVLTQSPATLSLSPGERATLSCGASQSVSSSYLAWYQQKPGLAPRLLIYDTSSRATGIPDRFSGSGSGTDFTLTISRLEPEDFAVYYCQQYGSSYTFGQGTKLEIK
binding result (human Claudin-3 [24]): no binding (tested: log 1.5 (about 33 nM))
EC50 (human Claudin-6 [2]): 8.34 nM
endocytosis killing (anti-hFc Fab-MMAF, CellTiter-Glo, 72 h) on NEC8 cells, EC50 (human Claudin-6 [3]): 0.41 nM
fold MFI over isotype control (human Claudin-6 [4]): 19 fold
binding result (human Claudin-4 [25]): no binding (tested: log 1.5 (about 33 nM))
fold MFI over isotype control (human Claudin-6 [5]): 23 fold
EC50 (human Claudin-6 [6]): 4.79 nM
EC50 (human Claudin-6 [7]): 15.7 nM
ADCC reporter assay on NEC8 cells, EC50 (human Claudin-6 [8]): 9.83 nM

B4: NR.N6.Ab5 (antibody, V domains shown)
VH: B3 VH with V11A, V50I, Y53F, S56R, F59N, R76K, Q82E, N84S
VL: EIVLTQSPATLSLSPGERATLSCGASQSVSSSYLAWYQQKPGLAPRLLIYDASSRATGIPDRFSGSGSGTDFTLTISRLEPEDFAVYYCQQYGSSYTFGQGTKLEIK
notes: LCDR 41, 45, 43); also called NR.4.N6.Ab5
binding result (human Claudin-3 [26]): no binding (tested: log 1.5 (about 33 nM))
EC50 (human Claudin-6 [2]): 5.92 nM
endocytosis killing (anti-hFc Fab-MMAF, CellTiter-Glo, 72 h) on NEC8 cells, EC50 (human Claudin-6 [3]): 0.26 nM
fold MFI over isotype control (human Claudin-6 [4]): 21 fold
fold MFI over isotype control (human Claudin-6 [5]): 24 fold
EC50 (human Claudin-6 [6]): 3.99 nM
EC50 (human Claudin-6 [7]): 4.13 nM
ADCC reporter assay on NEC8 cells, EC50 (human Claudin-6 [8]): 3.78 nM
binding result (human Claudin-4 [27]): no binding (tested: log 1.5 (about 33 nM))

B5: NR.N6.Ab1 variant N73D (antibody, V domains shown)
VH: QVQLVQSGAEVKKPGASVKVSCKASGNTFTSYDINWVRQATGQGLEWMGWMNPNSGNTGYAQKFQGRVTMTRDTSISTAYMELSSLRSEDTAVYYCVYYNYVWGSFRFDDWGQGTLVTVSS
VL: DIQLTQSPSFLSASVGDRVTITCRASQGISSYLAWYQQKPGKAPKLLIYAASTLQSGVPSRFSGSGSGTEFTLAVSSLQPEDFATYYCQQLNSYPYTFGQGTKLEIK
notes: the LALA changes of the constant region are explained nowhere; also called NR.N6.Ab1N73D; NR.N6.Ab1 N73D
EC50 (human Claudin-6 [28]): 0.42 nM
EC50 (human Claudin-6 [29]): 0.74 nM
